Drawing on PMC9536601 (2022), this text covers Kd for five molecules.

T1: Ad1 hexon, on wild-type human adenovirus type 1 virions (human adenovirus type 1)
T1 chain: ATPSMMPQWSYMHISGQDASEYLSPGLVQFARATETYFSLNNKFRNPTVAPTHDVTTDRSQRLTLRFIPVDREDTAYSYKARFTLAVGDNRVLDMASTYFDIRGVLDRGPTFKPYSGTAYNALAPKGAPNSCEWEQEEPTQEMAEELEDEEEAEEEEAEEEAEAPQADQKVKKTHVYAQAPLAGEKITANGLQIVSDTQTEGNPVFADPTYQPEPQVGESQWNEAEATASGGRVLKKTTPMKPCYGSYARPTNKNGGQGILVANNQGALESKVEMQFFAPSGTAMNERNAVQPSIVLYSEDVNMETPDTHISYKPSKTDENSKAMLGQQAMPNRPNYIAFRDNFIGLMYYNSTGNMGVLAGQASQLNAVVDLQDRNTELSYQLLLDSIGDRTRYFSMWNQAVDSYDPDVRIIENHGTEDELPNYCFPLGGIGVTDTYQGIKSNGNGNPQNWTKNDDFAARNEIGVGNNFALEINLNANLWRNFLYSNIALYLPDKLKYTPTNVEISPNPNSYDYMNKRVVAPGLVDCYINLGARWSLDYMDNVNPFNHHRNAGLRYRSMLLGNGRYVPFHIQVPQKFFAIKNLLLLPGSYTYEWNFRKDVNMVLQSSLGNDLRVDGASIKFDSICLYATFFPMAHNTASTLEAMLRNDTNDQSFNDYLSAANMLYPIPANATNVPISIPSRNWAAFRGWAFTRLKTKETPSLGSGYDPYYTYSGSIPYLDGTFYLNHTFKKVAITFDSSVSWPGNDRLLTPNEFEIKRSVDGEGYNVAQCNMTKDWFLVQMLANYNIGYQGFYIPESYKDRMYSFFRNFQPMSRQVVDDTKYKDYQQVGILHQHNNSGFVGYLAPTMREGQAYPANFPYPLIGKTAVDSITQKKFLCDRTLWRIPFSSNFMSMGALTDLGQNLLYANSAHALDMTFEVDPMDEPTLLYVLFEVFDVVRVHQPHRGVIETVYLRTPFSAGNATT

T2: Ad2 hexon, on wild-type human adenovirus type 2 virions (human adenovirus type 2, UniProt P03277 1-968)
T2 chain: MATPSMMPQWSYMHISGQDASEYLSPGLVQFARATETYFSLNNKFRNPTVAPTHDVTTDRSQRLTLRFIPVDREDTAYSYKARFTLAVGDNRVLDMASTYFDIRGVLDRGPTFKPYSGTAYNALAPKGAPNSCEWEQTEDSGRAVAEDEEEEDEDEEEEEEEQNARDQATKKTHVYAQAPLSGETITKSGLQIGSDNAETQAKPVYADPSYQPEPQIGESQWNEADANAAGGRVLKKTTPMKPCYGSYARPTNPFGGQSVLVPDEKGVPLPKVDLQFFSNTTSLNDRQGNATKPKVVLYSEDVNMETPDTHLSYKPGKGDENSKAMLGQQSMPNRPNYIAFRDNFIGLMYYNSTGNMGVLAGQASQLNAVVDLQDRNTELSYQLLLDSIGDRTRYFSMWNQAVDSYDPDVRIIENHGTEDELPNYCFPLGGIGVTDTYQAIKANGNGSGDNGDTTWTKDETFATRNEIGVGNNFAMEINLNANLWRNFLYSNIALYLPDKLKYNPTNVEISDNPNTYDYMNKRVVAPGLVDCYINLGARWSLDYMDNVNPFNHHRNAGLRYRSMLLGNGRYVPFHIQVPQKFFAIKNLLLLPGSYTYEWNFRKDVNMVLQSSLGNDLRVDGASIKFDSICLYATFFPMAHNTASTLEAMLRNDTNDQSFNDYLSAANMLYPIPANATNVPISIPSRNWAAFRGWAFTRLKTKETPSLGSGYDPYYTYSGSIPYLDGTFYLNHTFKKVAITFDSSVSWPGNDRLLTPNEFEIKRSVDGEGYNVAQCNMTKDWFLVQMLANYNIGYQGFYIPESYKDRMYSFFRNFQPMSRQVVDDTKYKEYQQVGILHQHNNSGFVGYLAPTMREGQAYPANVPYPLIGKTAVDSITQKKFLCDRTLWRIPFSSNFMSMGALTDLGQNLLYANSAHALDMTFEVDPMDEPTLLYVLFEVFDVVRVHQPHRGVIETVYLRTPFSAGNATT

T3: Ad5 hexon, on wild-type human adenovirus type 5 virions (human adenovirus type 5, UniProt P04133 2-952)
T3 chain: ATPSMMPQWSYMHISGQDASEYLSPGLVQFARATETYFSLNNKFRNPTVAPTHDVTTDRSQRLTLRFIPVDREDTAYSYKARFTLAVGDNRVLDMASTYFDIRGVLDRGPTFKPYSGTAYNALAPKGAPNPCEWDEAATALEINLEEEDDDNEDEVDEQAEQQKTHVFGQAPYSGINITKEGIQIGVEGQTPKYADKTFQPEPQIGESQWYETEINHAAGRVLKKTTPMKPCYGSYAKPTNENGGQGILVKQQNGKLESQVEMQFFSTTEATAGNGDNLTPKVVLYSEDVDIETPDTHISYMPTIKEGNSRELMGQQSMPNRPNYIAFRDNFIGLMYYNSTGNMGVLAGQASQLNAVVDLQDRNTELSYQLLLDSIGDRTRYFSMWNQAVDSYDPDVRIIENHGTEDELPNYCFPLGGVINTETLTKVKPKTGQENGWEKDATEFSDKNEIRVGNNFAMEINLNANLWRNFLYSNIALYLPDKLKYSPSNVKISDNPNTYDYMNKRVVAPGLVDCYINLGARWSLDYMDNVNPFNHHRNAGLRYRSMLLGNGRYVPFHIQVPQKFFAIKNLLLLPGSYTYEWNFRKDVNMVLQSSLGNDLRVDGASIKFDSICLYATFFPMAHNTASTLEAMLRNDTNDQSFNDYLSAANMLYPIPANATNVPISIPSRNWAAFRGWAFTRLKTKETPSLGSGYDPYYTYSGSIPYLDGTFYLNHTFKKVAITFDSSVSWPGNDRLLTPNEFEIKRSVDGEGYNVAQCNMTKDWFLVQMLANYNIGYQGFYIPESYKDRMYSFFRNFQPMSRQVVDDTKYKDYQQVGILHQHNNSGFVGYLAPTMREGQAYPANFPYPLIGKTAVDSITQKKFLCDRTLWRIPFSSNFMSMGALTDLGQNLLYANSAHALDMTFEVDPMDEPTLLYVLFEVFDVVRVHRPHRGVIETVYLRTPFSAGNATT

B1: bovine coagulation factor X (natural protein)
chain 1: ANSFLEEVKQGNLERECLEEACSLEEAREVFEDAEQTDEFWSKYKDGDQCEGHPCLNQGHCKDGIGDYTCTCAEGFEGKNCEFSTREICSLDNGGCDQFCREERSEVRCSCAHGYVLGDDSKSCVSTERFPCGKFTQGRS
chain 2: WAIHTSEDALDASELEHYDPADLSPTESSLDLLGLNRTEPSAGEDGSQVVRIVGGRDCAEGECPWQALLVNEENEGFCGGTILNEFYVLTAAHCLHQAKRFTVRVGDRNTEQEEGNEMAHEVEMTVKHSRFVKETYDFDIAVLRLKTPIRFRRNVAPACLPEKDWAEATLMTQKTGIVSGFGRTHEKGRLSSTLKMLEVPYVDRSTCKLSSSFTITPNMFCAGYDTQPEDACQGDSGGPHVTRFKDTYFVTGIVSWGEGCARKGKFGVYTKVSNFLKWIDKIMKARAGAAGSRGHSEAPATWTVPPPLPL
modifications: gamma-carboxylated glutamate residues in the Gla domain
B2: Ad6 hexon, on wild-type human adenovirus type 6 virions (natural protein)
chain: ATPSMMPQWSYMHISGQDASEYLSPGLVQFARATETYFSLNNKFRNPTVAPTHDVTTDRSQRLTLRFIPVDREDTAYSYKARFTLAVGDNRVLDMASTYFDIRGVLDRGPTFKPYSGTAYNALAPKGAPNSCEWEQNETAQVDAQELDEEENEANEAQAREQEQAKKTHVYAQAPLSGIKITKEGLQIGTADATVAGAGKEIFADKTFQPEPQVGESQWNEADATAAGGRVLKKTTPMKPCYGSYARPTNSNGGQGVMVEQNGKLESQVEMQFFSTSTNATNEVNNIQPTVVLYSEDVNMETPDTHLSYKPKMGDKNAKVMLGQQAMPNRPNYIAFRDNFIGLMYYNSTGNMGVLAGQASQLNAVVDLQDRNTELSYQLLLDSIGDRTRYFSMWNQAVDSYDPDVRIIENHGTEDELPNYCFPLGGIGITDTFQAVKTTAANGDQGNTTWQKDSTFAERNEIGVGNNFAMEINLNANLWRNFLYSNIALYLPDKLKYNPTNVEISDNPNTYDYMNKRVVAPGLVDCYINLGARWSLDYMDNVNPFNHHRNAGLRYRSMLLGNGRYVPFHIQVPQKFFAIKNLLLLPGSYTYEWNFRKDVNMVLQSSLGNDLRVDGASIKFDSICLYATFFPMAHNTASTLEAMLRNDTNDQSFNDYLSAANMLYPIPANATNVPISIPSRNWAAFRGWAFTRLKTKETPSLGSGYDPYYTYSGSIPYLDGTFYLNHTFKKVAITFDSSVSWPGNDRLLTPNEFEIKRSVDGEGYNVAQCNMTKDWFLVQMLANYNIGYQGFYIPESYKDRMYSFFRNFQPMSRQVVDDTKYKDYQQVGIIHQHNNSGFVGYLAPTMREGQAYPANVPYPLIGKTAVDSITQKKFLCDRTLWRIPFSSNFMSMGALTDLGQNLLYANSAHALDMTFEVDPMDEPTLLYVLFEVFDVVRVHQPHRGVIETVYLRTPFSAGNATT
B3: bovine prothrombin (FII) (natural protein)
chain: not shown
modifications: gamma-carboxylated glutamate residues in the Gla domain
B4: human coagulation factor X (natural protein)
chain 1: ANSFLEEMKKGHLERECMEETCSYEEAREVFEDSDKTNEFWNKYKDGDQCETSPCQNQGKCKDGLGEYTCTCLEGFEGKNCELFTRKLCSLDNGDCDQFCHEEQNSVVCSCARGYTLADNGKACIPTGPYPCGKQTLER
chain 2: SVAQATSSSGEAPDSITWKPYDAADLDPTENPFDLLDFNQTQPERGDNNLTRIVGGQECKDGECPWQALLINEENEGFCGGTILSEFYILTAAHCLYQAKRFKVRVGDRNTEQEEGGEAVHEVEVVIKHNRFTKETYDFDIAVLRLKTPITFRMNVAPACLPERDWAESTLMTQKTGIVSGFGRTHEKGRQSTRLKMLEVPYVDRNSCKLSSSFIITQNMFCAGYDTKQEDACQGDSGGPHVTRFKDTYFVTGIVSWGEGCARKGKYGIYTKVTAFLKWIDRSMKTRGLPKAKSHAPEVITSSPLK
modifications: gamma-carboxylated glutamate residues in the Gla domain
B5: mouse prothrombin (FII) (natural protein)
chain: not shown
modifications: gamma-carboxylated glutamate residues in the Gla domain

Holding throughout (experiment): SPR
Assay [1] has as its target T1, Ad1 hexon, on wild-type human ….
Assay [2] addresses B2.
For assay [3], the target named is T2, Ad2 hexon, on wild-type human ….
In assay [4] the target is human prothrombin (FII) (human, UniProt P00734 44-622, gamma-carboxylated glutamate residues in the Gla domain).
Assay [5] addresses T3, Ad5 hexon, on wild-type human ….

By Kd is commonly meant the constant that tells how readily two partners part at equilibrium. A higher Kd goes with lower affinity. Consider B1, for which the Kd in assay [1] amounted to 160 nM; in assay [2], 100 nM; in assay [3], 73 nM.
Regarding B2, binding in assay [4] was put at a Kd of 2.7 nM.
On to B3, for which the Kd in assay [1] was 37 nM.
As to B4, the Kd turned out to be 220 nM in assay [1], 28 nM in assay [2] and 0.74 nM in assay [5].
Turning to B5, the Kd in assay [1] worked out at 14 nM.
